Numbering of substitutions follows the chain as printed. Names and notes keep the numbering of the source. Where a SMILES comes first, the peptide text is derived from it. The star is where a group is joined. Cbz = O=C(OCc1ccccc1)*; CH2F = FC*
What was measured:
[1] = tested on: Gpx4; test: Immunoblotting of Gpx4 in POMCha^Δ1-26-expressing N43/5 cells treated with degradation inhibitors; type: cell-based, mouse; details: 8 hours
Experimental: To determine whether full-length POMCha or cytosolic POMCha^[…] regulated the expression of Gpx4 protein, which was known to be degraded by ferroptosis induction, the mRNA level of Gpx4 was analyzed by qRT-PCR in […]/5 cells overexpressing full-length POMCha or cytosolic POMCha^[…], and subjected to CHX-chase assay. In addition, since Gpx4 degradation occurred through chaperone-mediated autophagy (CMA), macroautophagy, or the Ub-proteasome system, […]/5 cells overexpressing POMCha^[…] were treated with a lysosomal inhibitor such as chloroquine (CQ) or BafA1 (bafilomycin A1), a proteasome inhibitor MG132, or a macroautophagy inhibitor 3-MA (3-methyladenine), and the expression of Gpx4 protein was analyzed by immunoblotting. In addition, the expression of lysosome-associated protein 2A (Lamp2a), heat shock chaperones Hsc70 and Hsp90 was confirmed by immunoblotting in […]/5 cells overexpressing POMCha^[…], and changes in Gpx4 were analyzed by treatment with Lamp2a-specific siRNA (SCBT, sc-35791).

[2] = tested on: POMCha-overexpressing Marchf6-KO N43/5 cells; test: Cell viability (CellTiter-Glo) of POMCha-overexpressing Marchf6-KO N43/5 cells; type: cell-based, mouse; details: for reduced viability of POMCha-overexpressing Marchf6-deficient N43/5 cells, effect of ectopic expression: ectopic expression by transfection
Experimental: To understand the functional or mechanistic association between Marchf6-mediated POMC degradation and ferroptosis, lipid ROS levels were compared in N43/5 cells overexpressing POMCha using a lipid peroxidation sensor C11-BODIPY^581/591. Specifically, WT or Marchf6-KO N43/5 cells were transfected with pCH4129 (POMCha) for 48 hours, and the medium was replaced with a culture medium containing 2 μM C11-BODIPY^581/591 (Thermo Fisher Scientific, D3861). The cells were incubated at 37° C. for 30 minutes, and the fluorescent probe-treated cells were trypsinized, transferred to a 15 ml Falcon tube, washed three times with 1 ml of ice-cold PBS, and then transferred to an ice-cold round-bottom polystyrene tube (Corning, 352235). The amount of intracellular lipid ROS in […] was measured using CytoFLEX LX (Beckman Coulter) using fluorescein isothiocyanate (FITC) and analyzed using FlowJo v10.8.1 (BD Bioscience). In addition, cell viability was analyzed using a CellTiter-Glo luminescent 3D cell viability assay kit (Promega, G9241) and a multimode plate reader (TECAN, Spark 10 M). At this time, when the inhibition of cell death was evaluated, WT or Marchf6-KO N43/5 cells expressing pCH60 (empty vector) or pCH4129 (POMCha) (final concentration of […] each) were treated with 5 μM Fer-1, 20 μM Z-VAD-FMK or 40 μM Nec-1, and incubated for 24 hours, and cell viability was analyzed. In addition, the intracellular NADP(H) level was measured using a NADP/NADPH-Glo assay kit (Promega, G9081) and a multimode plate reader (TECAN, Spark 10 M). Further, LDH activity was measured using the Cytotoxicity Detection Kit Plus (LDH) (Sigma, 4744926001).
Through Examples, since Marchf6 mediated the degradation of POMC, it was expected that loss of Marchf6 would make POMC neurons hypersensitive to POMC-induced ferroptosis. Therefore, pCH60 (empty vector), pCH879 (Marchf63f), pCH880 (Marchf6flag^C9A), or pCH4170 (Marchf6flag^P460A) was transfected into WT or Marchf6-KO N43/5 cells, and the degree of ferroptosis induction in POMC neurons was analyzed as in Example 6-1.

[3] = tested on: Gpx4, CHOP, Nox2, and Nox4; test: Immunoblotting of Gpx4, CHOP, Nox2 and Nox4 in POMCha-overexpressing Marchf6-KO N43/5 cells; type: cell-based, mouse
[4] = target: T1, POMC (Homo sapiens, UniProt P01189); test: Chemical crosslinking-based reciprocal co-immunoprecipitation assay in HEK293T cells; type: binding; details: DSP crosslinking
T1 construct: expressed in transfected cells; host or cells: HEK293T
T1 sequence (P01189 1-267): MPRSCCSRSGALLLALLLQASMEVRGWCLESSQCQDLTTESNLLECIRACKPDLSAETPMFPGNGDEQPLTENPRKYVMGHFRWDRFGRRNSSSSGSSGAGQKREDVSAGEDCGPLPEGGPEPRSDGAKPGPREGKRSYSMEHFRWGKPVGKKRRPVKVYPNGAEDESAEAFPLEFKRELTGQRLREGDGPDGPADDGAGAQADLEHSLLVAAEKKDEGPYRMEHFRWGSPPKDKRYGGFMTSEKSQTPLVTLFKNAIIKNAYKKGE
Experimental: For the chemical crosslinking-based reciprocal co-immunoprecipitation assay, HEK293T cells were incubated at […] in a 10-cm dish plate and co-transfected with […] of pCH60 (empty vector) or pCH4129 (exogenous C-terminally hemagglutinin (ha)-tagged POMC: POMCha) and pCH879 (wild-type C-terminal triple flag-tagged Marchf6: Marchf63f) or pCH4170 (Marchf6^P460A) and incubated for 48 hours. The cells were washed with PBS, treated with 1 mM DSP [dithiobis(succinimidyl propionate)] (Thermo Fisher, 22585), and then the crosslinked cells were lysed and immunoprecipitated. The beads were washed three times with an IP-wash buffer (20 mM Tris-HCl, 137 mM NaCl, 0.1% NP-40, 2 mM EDTA, 10% glycerol) and bound proteins were eluted with a 2× SDS sample buffer. For immunoprecipitation with FLAG-agarose (Sigma-Aldrich, A2220), a 3× FLAG peptide (Protein Ark, GEN-3XFLAG-5) was used. Thereafter, the eluate was denatured and heated at 37° C. for 20 minutes, and SDS-PAGE and immunoblotting were performed using the corresponding antibody.

For `CO/C1=C\C(C)=C\[C@@H](C)[C@@H](O)[C@@H](C)C/C(C)=C/C=C/[C@H](OC)[C@@H]([C@@H](C)[C@@H](O)[C@H](C)[C@@]2(O)C[C@@H](O)[C@H](C)[C@@H](C(C)C)O2)OC1=O` [BafA1, bafilomycin A1], which “Gpx4 downregulation in POMCha^Δ1-26-expressing N43/5 cells, effect of treatment” value ([1]; BafA1 100 nM) is on record?
Its value is “restored”.

For `CCN(CC)CCCC(C)Nc1ccnc2cc(Cl)ccc12` (stereo not drawn) [CQ, chloroquine], which “Gpx4 downregulation in POMCha^Δ1-26-expressing N43/5 cells, effect of treatment” value ([1]; CQ 50 μM) is on record?
The value was “restored”.

For `CN1C(=O)C(Cc2c[nH]c3ccccc23)NC1=S` (stereo not drawn) [Nec-1, necrostatin-1, reference compound], which “decreased viability of POMCha-overexpressing Marchf6-KO N43/5 cells, effect of treatment” value ([2]; 40 μM Nec-1, 24 hours) is on record?
The value was “not restored”.

Which “decreased viability of POMCha-overexpressing Marchf6-KO N43/5 cells, effect of treatment” value ([2]; 20 μM Z-VAD-FMK, 24 hours) does the source give for `COC(=O)C[C@H](NC(=O)[C@H](C)NC(=O)[C@@H](NC(=O)OCc1ccccc1)C(C)C)C(=O)CF` [Z-VAD, Z-VAD-FMK, reference compound] (Cbz-Val-Ala-Asp(OMe)-CH2F) here?
The value was “not restored”.

B1: Marchf63f^P460A: POMC-inaccessible Marchf6 mutant with Pro460-to-Ala mutation in the POMC-interacting region (pCH4170) (protein, UniProt Q6ZQ89 1-909, looked up, variant P460A)
E3 ubiquitin-protein ligase …: MDTAEEDICRVCRSEGTPEKPLYHPCVCTGSIKFIHQECLVQWLKHSRKEYCELCKHRFAFTPIYSPDMPSRLPIQDIFAGLVTSIGTAIRYWFHYTLVAFAWLGVVPLTACRIYKCLFTGSVSSLLTLPLDMLSTENLLADCLQGCFVVTCTLCAFISLVWLREQIVHGGAPIWLEHAAPPFNAAGHHQNEAPVGGNGAENPAADQPANPAGENAVLGENPDAQDGQAEEEEEDNEEEDDAGVEDAADANNGAQDDMNWNALEWDRAAEELTWERMLGLDGSLVFLEHVFWVVSLNTLFILVFAFCPYHIGHFSLVGLGFEEHVQASHFEGLITTIVGYILLAITLIICHALATLVKFHRSRRLLGVCYIVVKVSLLVVVEIGVFPLICGWWLDICSLEMFDATLKDRELSFQSAPGTTMFLHWLVGMVYVFYFASFILLLREVLRPGVLWFLRNLNDADFNPVQEMIHLPIYRHLRRFILSVIVFGSIVLLMLWLPIRIIKSLLPNFLPYNVMLYSDAPVSELSLELLLLQVVLPALLEQGHTRQWLKGLVRAWTVTAGYLLDLHSYLLGDQEENENSANQQVNNNQPARNNNAVPAGEGLHAAHQAILQQGGPVGFQPYRRPLNFPLRIFLLIVFMCITLLIASLICLTLPVFAGRWLMSFWTGTAKIHELYTAACGLYVCWLTIRAVTVLVAWMPQGRRVIFQKVKEWSLMIMKTLIVAVLLAGVVPLLLGLLFELVIVAPLRVPLDQTPLFYPWQDWALGVLHAKIIAAITLMGPQWWLKTVIEQVYANGIRNIDLHYIIRKLAAPVISVLLLSLCVPYVIASGAVPLLGVTAEMQNLVHRRIYPFLLMVVVLMGILSFQVRQFKRLYEHIKNDKYLVGQRLVNYERKSGKQGPSTPPPVSSQE
modifications: C-terminal triple FLAG tag
Which “reduced viability of POMCha-overexpressing Marchf6-deficient N43/5 cells, effect of ectopic expression” value [2] does the source give for B1 here?
The value was “not restored”.

What about the “expression levels of Gpx4, CHOP, Nox2, and Nox4 proteins, effect of expression of construct” value [3] of the same molecule?
The value was “not restored”.

What about the “binding of full-length POMC (co-immunoprecipitation)” value [4] of the same molecule?
Its value is “did not bind”.

B2: Marchf63f^C9A: catalytically inactive Marchf6 mutant (pCH880) (protein, UniProt Q6ZQ89 1-909, looked up, variant C9A)
E3 ubiquitin-protein ligase …: B1 E3 ubiquitin-protein ligase … with C9A, A460P
modifications: C-terminal triple FLAG tag
What does the source list for B2?
reduced viability of POMCha-overexpressing Marchf6-deficient N43/5 cells, effect of ectopic expression [2]: not restored; expression levels of Gpx4, CHOP, Nox2, and Nox4 proteins, effect of expression of construct [3]: not restored
